Measured values: IntAct's records for PubMed 15448699

B1: Protein SIC1 (Saccharomyces cerevisiae), P38634 (parent)
chain: MTPSTPPRSRGTRYLAQPSGNTSSSALMQGQKTPQKPSQNLVPVTPSTTKSFKNAPLLAPPNSNMGMTSPFNGLTSPQRSPFPKSSVKRTLFQFESHDNGTVREEQEPLGRVNRILFPTQQNVDIDAAEEEEEGEVLLPPSRPTSARQLHLSLERDEFDQTHRKKIIKDVPGTPSDKVITFELAKNWNNNSPKNDARSQESEDEEDIIINPVRVGKNPFASDELVTQEIRNERKRAMLRENPDIEDVITYVNKKGEVVEKRRLTDEEKRRFKPKALFQSRDQEH
partner: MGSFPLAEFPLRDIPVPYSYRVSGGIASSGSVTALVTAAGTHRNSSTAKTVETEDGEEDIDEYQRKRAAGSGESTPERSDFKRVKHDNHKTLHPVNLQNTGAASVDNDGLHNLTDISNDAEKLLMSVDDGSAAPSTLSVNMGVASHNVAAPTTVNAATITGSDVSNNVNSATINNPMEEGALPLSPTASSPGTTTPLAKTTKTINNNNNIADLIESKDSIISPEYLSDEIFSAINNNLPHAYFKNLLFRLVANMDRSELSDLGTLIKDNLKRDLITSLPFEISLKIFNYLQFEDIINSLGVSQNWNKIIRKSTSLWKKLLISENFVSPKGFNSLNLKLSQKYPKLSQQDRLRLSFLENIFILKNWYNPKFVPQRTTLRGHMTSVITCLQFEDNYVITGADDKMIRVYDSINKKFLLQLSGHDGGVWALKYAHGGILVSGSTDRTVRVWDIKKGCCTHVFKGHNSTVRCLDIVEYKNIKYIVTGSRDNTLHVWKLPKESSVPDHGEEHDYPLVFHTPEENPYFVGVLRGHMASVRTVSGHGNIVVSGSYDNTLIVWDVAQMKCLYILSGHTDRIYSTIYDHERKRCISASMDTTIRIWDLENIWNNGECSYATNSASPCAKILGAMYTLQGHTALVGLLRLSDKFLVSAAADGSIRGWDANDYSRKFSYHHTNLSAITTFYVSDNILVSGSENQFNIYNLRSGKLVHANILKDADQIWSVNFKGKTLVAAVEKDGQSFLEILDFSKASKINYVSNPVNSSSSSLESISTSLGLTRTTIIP
B2: Protein SIC1 (Saccharomyces cerevisiae), P38634 (parent)
chain: B1 chain
partner: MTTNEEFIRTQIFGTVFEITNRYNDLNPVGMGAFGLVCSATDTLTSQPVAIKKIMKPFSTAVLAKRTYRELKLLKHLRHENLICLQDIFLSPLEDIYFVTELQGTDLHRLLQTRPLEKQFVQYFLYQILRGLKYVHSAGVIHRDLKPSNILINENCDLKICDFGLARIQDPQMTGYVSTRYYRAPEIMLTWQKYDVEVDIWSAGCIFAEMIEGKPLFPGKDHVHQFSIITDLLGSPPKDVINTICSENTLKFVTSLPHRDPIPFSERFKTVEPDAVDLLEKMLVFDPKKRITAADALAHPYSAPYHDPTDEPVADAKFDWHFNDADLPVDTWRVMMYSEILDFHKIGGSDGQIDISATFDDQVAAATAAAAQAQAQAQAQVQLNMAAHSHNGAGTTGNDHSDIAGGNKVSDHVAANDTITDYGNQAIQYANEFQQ

Variants of: B1
Conditions: with cdc4_yeast CDC4, P07834

Variant	effect of a mutation on the interaction
MTPSTPPRSRGTRYLAQPSGNTSSSALMQGQKTPQKPSQNLVPVTPSTTKSFKNAPLLAPPNSNMGMTSPFNGLTSPQRSPFPKSSVKRTLFQFESHDNGTVREEQEPLGRVNRILFPTQQNVDIDAAEEEEEGEVLLPPSRPTSARQLHLSLERDEFDQTHRKKIIKDVPGEPSDKVITFELAKNWNNNSPKNDARSQESEDEEDIIINPVRVGKNPFASDELVTQEIRNERKRAMLRENPDIEDVITYVNKKGEVVEKRRLTDEEKRRFKPKALFQSRDQEH [T173E]	decreasing interaction

Variants of: B2
Conditions: with hog1_yeast HOG1, P32485

Variant	effect of a mutation on the interaction
MTPSTPPRSRGTRYLAQPSGNTSSSALMQGQKTPQKPSQNLVPVTPSTTKSFKNAPLLAPPNSNMGMTSPFNGLTSPQRSPFPKSSVKRTLFQFESHDNGTVREEQEPLGRVNRILFPTQQNVDIDAAEEEEEGEVLLPPSRPTSARQLHLSLERDEFDQTHRKKIIKDVPGEPSDKVITFELAKNWNNNSPKNDARSQESEDEEDIIINPVRVGKNPFASDELVTQEIRNERKRAMLRENPDIEDVITYVNKKGEVVEKRRLTDEEKRRFKPKALFQSRDQEH [T173E]	disrupting interaction
